Data published in the supplement of paper PMC7125110.
± gives the standard error. For some of these results: Fewer inactive variants are shown than the library holds.

B1: glmS ribozyme (parent)
chain: AUAAAAGCGCCAGAACUACAGAAAUGUAGUUGACGAGGAGGAGGUUUAUCGAAUUUUCGGCGGAUGCCUCCAAA

How the values were obtained:
Details in all cases: with glucosamine-6-phosphate
[1] = variants of: B1; assay: kcat; higher = faster cleavage; RNA array
How it was run: (§1)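 Tiles of sequenced MiSeq chips were imaged over ~14 h at 37 °C. On them, barcoded ribozyme variants had been transcribed in situ by E. coli RNA polymerase and were tracked via a hybridised Cy3 probe while glucosamine-6-phosphate (40 μM to 10 mM) in HEPES/KCl/Mg(OAc)2 buffer flowed in. Per-tile medians, normalised to baseline and to non-cleaving reference variants, were fit to one- or two-exponential decays for kobs, and weighted Michaelis–Menten fits gave kcat and KM.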

[2] = variants of: B1; assay: KM; higher = weaker cofactor use; RNA array
How it was run: as §1

[3] = variants of: B1; assay: self-cleavage kobs at 640 uM GlcN6P; higher = faster cleavage; RNA array
How it was run: as §1

[4] = variants of: B1; assay: self-cleavage kobs at 2500 uM GlcN6P; higher = faster cleavage; RNA array
How it was run: as §1

[5] = variants of: B1; assay: self-cleavage kobs at 10000 uM GlcN6P; higher = faster cleavage; RNA array
How it was run: as §1

[6] = variants of: B1; assay: self-cleavage kobs at 40 uM GlcN6P; higher = faster cleavage; RNA array
How it was run: as §1

[7] = variants of: B1; assay: self-cleavage kobs at 160 uM GlcN6P; higher = faster cleavage; RNA array
How it was run: as §1

Variant: A6U G66A
- kcat [1]: 0.000205 ± 1.7e-05 s⁻¹
- KM [2]: 3170 ± 600 µM
- self-cleavage kobs at 640 uM GlcN6P [3]: 3.28e-05 ± 1.3e-05 s⁻¹
- self-cleavage kobs at 2500 uM GlcN6P [4]: 9.12e-05 ± 1.4e-05 s⁻¹
- self-cleavage kobs at 10000 uM GlcN6P [5]: 0.000155 ± 1.9e-05 s⁻¹

Variant: C10U A14G C68G
- kcat [1]: 3.32e-05 ± 9.4e-06 s⁻¹

Variant: G7A U31G
- kcat [1]: 2.76e-05 ± 2.9e-06 s⁻¹
- KM [2]: 2490 ± 920 µM

Variant: A6G A53U
- kcat [1]: 0.000303 ± 3.8e-05 s⁻¹
- KM [2]: 1940 ± 560 µM
- self-cleavage kobs at 640 uM GlcN6P [3]: 6.78e-05 ± 1.6e-05 s⁻¹
- self-cleavage kobs at 2500 uM GlcN6P [4]: 0.000191 ± 2.7e-05 s⁻¹
- self-cleavage kobs at 10000 uM GlcN6P [5]: 0.000241 ± 3.5e-05 s⁻¹

Variant: C11A A12U U45G U55A C70U
- kcat [1]: 0.00104 ± 0.00013 s⁻¹
- self-cleavage kobs at 2500 uM GlcN6P [4]: 7.5e-05 ± 3.1e-05 s⁻¹
- self-cleavage kobs at 10000 uM GlcN6P [5]: 0.000245 ± 5.6e-05 s⁻¹

Variant: C10U A52C C61A U69A
- kcat [1]: < 1e-05 s⁻¹

Variant: A6C C70G
- kcat [1]: 1.09e-05 ± 2.1e-06 s⁻¹

Variant: A6U A15C A48U U69G
- kcat [1]: 2.37e-05 ± 7.1e-06 s⁻¹
- self-cleavage kobs at 40 uM GlcN6P [6]: < 1e-05 s⁻¹

Variant: C11A G40U
- kcat [1]: 1.13e-05 ± 2e-06 s⁻¹
- self-cleavage kobs at 160 uM GlcN6P [7]: < 1e-05 s⁻¹
- self-cleavage kobs at 640 uM GlcN6P [3]: < 1e-05 s⁻¹

Variant: A6G U54G
- kcat [1]: 0.000277 ± 1.2e-05 s⁻¹
- KM [2]: 1230 ± 140 µM
- self-cleavage kobs at 640 uM GlcN6P [3]: 9.48e-05 ± 1.7e-05 s⁻¹
- self-cleavage kobs at 2500 uM GlcN6P [4]: 0.000179 ± 2.9e-05 s⁻¹
- self-cleavage kobs at 10000 uM GlcN6P [5]: 0.000251 ± 3.1e-05 s⁻¹

Variant: C10U G60A C71U
- kcat [1]: 1.14e-05 ± 1.1e-06 s⁻¹
- KM [2]: 2050 ± 570 µM

Variant: A6U C70G
- kcat [1]: 3.01e-05 ± 9.6e-06 s⁻¹
- self-cleavage kobs at 640 uM GlcN6P [3]: 3.81e-05 ± 1.3e-05 s⁻¹
- self-cleavage kobs at 2500 uM GlcN6P [4]: 5.38e-05 ± 1.1e-05 s⁻¹
- self-cleavage kobs at 10000 uM GlcN6P [5]: 1.91e-05 ± 6.9e-06 s⁻¹

Variant: A6U G60A
- kcat [1]: < 1e-05 s⁻¹
- self-cleavage kobs at 640 uM GlcN6P [3]: < 1e-05 s⁻¹

Variant: C11A A39U
- kcat [1]: 0.000122 ± 2.3e-05 s⁻¹
- self-cleavage kobs at 2500 uM GlcN6P [4]: 7e-05 ± 9.6e-06 s⁻¹
- self-cleavage kobs at 10000 uM GlcN6P [5]: 9.43e-05 ± 1.2e-05 s⁻¹

Variant: A6G C68U
- kcat [1]: 0.000115 ± 2.9e-06 s⁻¹
- KM [2]: 728 ± 79 µM
- self-cleavage kobs at 640 uM GlcN6P [3]: 5.56e-05 ± 1.1e-05 s⁻¹
- self-cleavage kobs at 2500 uM GlcN6P [4]: 8.68e-05 ± 1.5e-05 s⁻¹
- self-cleavage kobs at 10000 uM GlcN6P [5]: 0.000107 ± 1e-05 s⁻¹

Variant: A6U U30A A36C
- kcat [1]: < 1e-05 s⁻¹
- self-cleavage kobs at 160 uM GlcN6P [7]: < 1e-05 s⁻¹
- self-cleavage kobs at 10000 uM GlcN6P [5]: < 1e-05 s⁻¹

Variant: C11A A15G
- kcat [1]: 0.000255 ± 2.9e-05 s⁻¹
- KM [2]: 1280 ± 310 µM
- self-cleavage kobs at 160 uM GlcN6P [7]: 3.04e-05 ± 1.5e-05 s⁻¹
- self-cleavage kobs at 640 uM GlcN6P [3]: 8.86e-05 ± 1e-05 s⁻¹
- self-cleavage kobs at 2500 uM GlcN6P [4]: 0.000149 ± 1.9e-05 s⁻¹
- self-cleavage kobs at 10000 uM GlcN6P [5]: 0.000251 ± 3.3e-05 s⁻¹

Variant: C10G C61A
- kcat [1]: 1.32e-05 ± 9.6e-07 s⁻¹
- KM [2]: 180 ± 67 µM
- self-cleavage kobs at 40 uM GlcN6P [6]: < 1e-05 s⁻¹
- self-cleavage kobs at 640 uM GlcN6P [3]: < 1e-05 s⁻¹
- self-cleavage kobs at 10000 uM GlcN6P [5]: < 1e-05 s⁻¹

Variant: A6U U49A C71G
- kcat [1]: 3.45e-05 ± 8.5e-06 s⁻¹

Variant: C10U A53G
- kcat [1]: 2.78e-05 ± 1.2e-06 s⁻¹
- KM [2]: 6420 ± 600 µM
- self-cleavage kobs at 40 uM GlcN6P [6]: < 1e-05 s⁻¹
- self-cleavage kobs at 10000 uM GlcN6P [5]: 1.69e-05 ± 7.4e-06 s⁻¹

Variant: A6C U30A
- kcat [1]: < 1e-05 s⁻¹
- self-cleavage kobs at 40 uM GlcN6P [6]: < 1e-05 s⁻¹
- self-cleavage kobs at 160 uM GlcN6P [7]: < 1e-05 s⁻¹

Variant: G9U A39U C61A
- kcat [1]: 0.000456 ± 2.3e-05 s⁻¹
- KM [2]: 503 ± 58 µM
- self-cleavage kobs at 160 uM GlcN6P [7]: 0.000118 ± 4.8e-05 s⁻¹
- self-cleavage kobs at 640 uM GlcN6P [3]: 0.000243 ± 6.2e-05 s⁻¹
- self-cleavage kobs at 2500 uM GlcN6P [4]: 0.000376 ± 0.00013 s⁻¹
- self-cleavage kobs at 10000 uM GlcN6P [5]: 0.00046 ± 0.00017 s⁻¹

Variant: A6U U54A C67A
- kcat [1]: 2.15e-05 ± 2.2e-06 s⁻¹
- self-cleavage kobs at 160 uM GlcN6P [7]: < 1e-05 s⁻¹

Variant: C11A C16U
- kcat [1]: 0.000159 ± 1.5e-05 s⁻¹
- KM [2]: 1110 ± 340 µM
- self-cleavage kobs at 640 uM GlcN6P [3]: 6.65e-05 ± 1.5e-05 s⁻¹
- self-cleavage kobs at 2500 uM GlcN6P [4]: 9.79e-05 ± 1.5e-05 s⁻¹
- self-cleavage kobs at 10000 uM GlcN6P [5]: 0.000151 ± 1.8e-05 s⁻¹

Variant: C8A G60A
- kcat [1]: < 1e-05 s⁻¹
- KM [2]: 86.3 ± 25 µM
- self-cleavage kobs at 160 uM GlcN6P [7]: < 1e-05 s⁻¹

Variant: A6C G13A A36U U56G
- kcat [1]: < 1e-05 s⁻¹
- self-cleavage kobs at 40 uM GlcN6P [6]: < 1e-05 s⁻¹
- self-cleavage kobs at 2500 uM GlcN6P [4]: < 1e-05 s⁻¹

Variant: C11A U30A U45G
- kcat [1]: 2.81e-05 ± 1.1e-06 s⁻¹
- KM [2]: 3690 ± 410 µM

Variant: G9U A48U C58G C67U
- kcat [1]: < 1e-05 s⁻¹
- self-cleavage kobs at 40 uM GlcN6P [6]: < 1e-05 s⁻¹
- self-cleavage kobs at 640 uM GlcN6P [3]: < 1e-05 s⁻¹

Variant: C11A G37U
- kcat [1]: 1.35e-05 ± 3.5e-06 s⁻¹
- self-cleavage kobs at 160 uM GlcN6P [7]: < 1e-05 s⁻¹

Variant: C11A C61U C67G
- kcat [1]: < 1e-05 s⁻¹

Variant: C8U G37A C58G
- kcat [1]: < 1e-05 s⁻¹

Variant: A6G A14G
- kcat [1]: 0.00132 ± 0.00026 s⁻¹
- KM [2]: 3740 ± 1200 µM
- self-cleavage kobs at 160 uM GlcN6P [7]: 7.41e-05 ± 1.7e-05 s⁻¹
- self-cleavage kobs at 640 uM GlcN6P [3]: 0.000162 ± 4.1e-05 s⁻¹
- self-cleavage kobs at 2500 uM GlcN6P [4]: 0.000514 ± 7.9e-05 s⁻¹
- self-cleavage kobs at 10000 uM GlcN6P [5]: 0.000992 ± 0.00016 s⁻¹

Variant: C11A A14G U65G
- kcat [1]: 0.000152 ± 6.2e-06 s⁻¹
- KM [2]: 1370 ± 200 µM
- self-cleavage kobs at 640 uM GlcN6P [3]: 5.21e-05 ± 1.7e-05 s⁻¹
- self-cleavage kobs at 2500 uM GlcN6P [4]: 9.32e-05 ± 2e-05 s⁻¹
- self-cleavage kobs at 10000 uM GlcN6P [5]: 0.000135 ± 1.7e-05 s⁻¹

Variant: C8G C10A
- kcat [1]: < 1e-05 s⁻¹
- self-cleavage kobs at 40 uM GlcN6P [6]: < 1e-05 s⁻¹
- self-cleavage kobs at 160 uM GlcN6P [7]: < 1e-05 s⁻¹
- self-cleavage kobs at 640 uM GlcN6P [3]: < 1e-05 s⁻¹
- self-cleavage kobs at 2500 uM GlcN6P [4]: < 1e-05 s⁻¹
- self-cleavage kobs at 10000 uM GlcN6P [5]: < 1e-05 s⁻¹

Variant: G9A G37C
- kcat [1]: < 1e-05 s⁻¹
- self-cleavage kobs at 40 uM GlcN6P [6]: < 1e-05 s⁻¹

Variant: C11A C58A
- kcat [1]: 2e-05 ± 2.2e-07 s⁻¹
- KM [2]: 1680 ± 98 µM
- self-cleavage kobs at 40 uM GlcN6P [6]: < 1e-05 s⁻¹
- self-cleavage kobs at 160 uM GlcN6P [7]: < 1e-05 s⁻¹
- self-cleavage kobs at 640 uM GlcN6P [3]: < 1e-05 s⁻¹

Variant: C10G C11G
- kcat [1]: < 1e-05 s⁻¹
- self-cleavage kobs at 40 uM GlcN6P [6]: < 1e-05 s⁻¹
- self-cleavage kobs at 160 uM GlcN6P [7]: < 1e-05 s⁻¹

Variant: A6C A39G
- kcat [1]: 6.38e-05 ± 7.8e-07 s⁻¹
- KM [2]: 439 ± 33 µM
- self-cleavage kobs at 2500 uM GlcN6P [4]: 5.42e-05 ± 1.9e-05 s⁻¹
- self-cleavage kobs at 10000 uM GlcN6P [5]: 6.11e-05 ± 1.4e-05 s⁻¹

Variant: A6C A14G
- kcat [1]: 0.000252 ± 8.5e-06 s⁻¹
- KM [2]: 1220 ± 210 µM
- self-cleavage kobs at 2500 uM GlcN6P [4]: 0.000164 ± 3.1e-05 s⁻¹
- self-cleavage kobs at 10000 uM GlcN6P [5]: 0.000226 ± 2.3e-05 s⁻¹

Variant: C10U U47C
- kcat [1]: < 1e-05 s⁻¹
- self-cleavage kobs at 40 uM GlcN6P [6]: < 1e-05 s⁻¹
- self-cleavage kobs at 640 uM GlcN6P [3]: < 1e-05 s⁻¹

Variant: C10A C70U
- kcat [1]: 2.11e-05 ± 9.5e-06 s⁻¹
- self-cleavage kobs at 2500 uM GlcN6P [4]: 2.56e-05 ± 1.3e-05 s⁻¹

Variant: C10U U30C G59A G60A C70U
- kcat [1]: < 1e-05 s⁻¹
- self-cleavage kobs at 40 uM GlcN6P [6]: < 1e-05 s⁻¹

Variant: A6C U31G
- kcat [1]: 2.39e-05 ± 9.7e-07 s⁻¹
- KM [2]: 3730 ± 510 µM
- self-cleavage kobs at 10000 uM GlcN6P [5]: 1.74e-05 ± 5.6e-06 s⁻¹
